The source of these data is patent US20230364228A1.

Assay [1] addresses highest binding amyloid (in vitro). As to the kind of experiment: in vitro binding to amyloid, format not stated.
Assay [2] has the same target. Put plainly: calculated from in vitro binding to amyloid, format not stated.

B1: antibody having a heavy chain variable domain (VH) of SEQ ID NO:1 and a light chain variable domain (VL) of SEQ ID NO:2 (CAEL101) (antibody, IgG1, V domains shown)
VH: QVQLKESGPGLVAPSQSLSITCTVSGFSLSSYGVSWVRQPPGKGLEWLGVIWGDGSTNYHPNLMSRLSISKDISKSQVLFKLNSLQTDDTATYYCVTLDYWGQGTSVTVSS
VL: DVVMTQTPLSLPVSLGDQASISCRSSQSLVHRNGNTYLHWYLQKPGQSPKLLIYKVSNRFSGVPDRFSGSGSGTDFTLKISRVEAEDLGLYFCFQTTYVPNTFGGGTKLEIK
As to B1, the half-maximal effective concentration (EC50) in assay [1] came to 157 µg/mL. In addition, the Michaelis-Menton (MM) EC 90 (calculated) in assay [2] was 36.5 µg/mL.
